Test results: patent publication US20260193293A1, “PEPTIDES CAPABLE OF INHIBITING PROTEIN-PROTEIN INTERACTIONS AT GABAB1A SUBUNIT AND USES THEREOF” (UNIVERSITY OF COPENHAGEN, priority 2022, published 2026)
Non-standard residues stand in square brackets, D forms with d. 2Nal = N[C@@H](Cc1ccc2ccccc2c1)C(=O)O; NMeE = CN[C@@H](CCC(=O)O)C(=O)O; NMeD = CN[C@@H](CC(=O)O)C(=O)O

B1: … (peptide)
peptide: Ac-RTEFIAWGPTGDED-NH2
B2: … (peptide)
peptide: Ac-NTEFIAWGPTGDED-NH2
B3: … (peptide)
peptide: Ac-EVEFIAWGPTGDED-NH2
B4: … (peptide)
peptide: Ac-ETDFIAWGPTGDED-NH2
B5: … (peptide)
peptide: Ac-ETSFIAWGPTGDED-NH2
B6: … (peptide)
peptide: Ac-ETEWIAWGPTGDED-NH2
B7: … (peptide)
peptide: Ac-ETEYIAWGPTGDED-NH2
B8: peptide 26 (peptide)
peptide: Ac-ETEFIDWGPTGDED-NH2
B9: … (peptide)
peptide: Ac-ETEFIHWGPTGDED-NH2
B10: … (peptide)
peptide: Ac-ETEFIVWGPTGDED-NH2
B11: … (peptide)
peptide: Ac-ETEFIAWHPTGDED-NH2
B12: … (peptide)
peptide: Ac-ETEFIAWYPTGDED-NH2
B13: … (peptide)
peptide: Ac-ETEFIAWGPFGDED-NH2
B14: … (peptide)
peptide: Ac-ETEFIAWGPHGDED-NH2
B15: … (peptide)
peptide: Ac-ETEFIAWGPSGDED-NH2
B16: … (peptide)
peptide: Ac-ETEFIAWGPTHDED-NH2
B17: … (peptide)
peptide: Ac-ETEFIAWGPTRDED-NH2
B18: … (peptide)
peptide: Ac-ETEFIAWGPTGHED-NH2
B19: … (peptide)
peptide: Ac-ETEFIAWGPTGYED-NH2
B20: … (peptide)
peptide: Ac-ETEFIAWGPTGDDD-NH2
B21: … (peptide)
peptide: Ac-ETEFIAWGPTGDFD-NH2
B22: … (peptide)
peptide: Ac-ETEFIAWGPTGDPD-NH2
B23: … (peptide)
peptide: Ac-ETEFIAWGPTGDRD-NH2
B24: … (peptide)
peptide: Ac-ETEFIAWGPTGDWD-NH2
B25: … (peptide)
peptide: Ac-ETEFIAWGPTGDYD-NH2
B26: … (peptide)
peptide: Ac-ETEFIAWGPTGDEF-NH2
B27: …(N-Me-E)D (peptide)
peptide: Ac-PWAIVWGPTVSR[NMeE]D-NH2
SMILES: CC[C@H](C)[C@H](NC(=O)[C@H](C)NC(=O)[C@H](Cc1c[nH]c2ccccc12)NC(=O)[C@@H]1CCCN1C(C)=O)C(=O)N[C@H](C(=O)N[C@@H](Cc1c[nH]c2ccccc12)C(=O)NCC(=O)N1CCC[C@H]1C(=O)N[C@H](C(=O)N[C@H](C(=O)N[C@@H](CO)C(=O)N[C@@H](CCCNC(=N)N)C(=O)N(C)[C@@H](CCC(=O)O)C(=O)N[C@@H](CC(=O)O)C(N)=O)C(C)C)[C@@H](C)O)C(C)C
B28: …(N-Me-D) (peptide)
peptide: Ac-PWAIVWGPTVSRE[NMeD]-NH2
SMILES: CC[C@H](C)[C@H](NC(=O)[C@H](C)NC(=O)[C@H](Cc1c[nH]c2ccccc12)NC(=O)[C@@H]1CCCN1C(C)=O)C(=O)N[C@H](C(=O)N[C@@H](Cc1c[nH]c2ccccc12)C(=O)NCC(=O)N1CCC[C@H]1C(=O)N[C@H](C(=O)N[C@H](C(=O)N[C@@H](CO)C(=O)N[C@@H](CCCNC(=N)N)C(=O)N[C@@H](CCC(=O)O)C(=O)N(C)[C@@H](CC(=O)O)C(N)=O)C(C)C)[C@@H](C)O)C(C)C
B29: … (peptide)
peptide: Ac-KDDSDVWWGGADTD-NH2
B30: … (peptide)
peptide: Ac-EDDWDVWWGGADTD-NH2
B31: … (peptide)
peptide: Ac-EDDSFVWWGGADTD-NH2
B32: … (peptide)
peptide: Ac-EDDSIVWWGGADTD-NH2
B33: … (peptide)
peptide: Ac-EDDSYVWWGGADTD-NH2
B34: … (peptide)
peptide: Ac-EDDSDIWWGGADTD-NH2
B35: … (peptide)
peptide: Ac-EDDSDVDWGGADTD-NH2
B36: … (peptide)
peptide: Ac-EDDSDVIWGGADTD-NH2
B37: … (peptide)
peptide: Ac-EDDSDVYWGGADTD-NH2
B38: … (peptide)
peptide: Ac-EDDSDVWWDGADTD-NH2
B39: … (peptide)
peptide: Ac-EDDSDVWWHGADTD-NH2
B40: … (peptide)
peptide: Ac-EDDSDVWWGPADTD-NH2
B41: … (peptide)
peptide: Ac-EDDSDVWWGGHDTD-NH2
B42: … (peptide)
peptide: Ac-EDDSDVWWGGSDTD-NH2
B43: … (peptide)
peptide: Ac-EDDSDVWWGGYDTD-NH2
B44: … (peptide)
peptide: Ac-EDDSDVWWGGADED-NH2
B45: … (peptide)
peptide: Ac-EDDSDVWWGGADHD-NH2
B46: … (peptide)
peptide: Ac-EDDSDVWWGGADWD-NH2
B47: 16-R8 (…) (peptide)
peptide: Ac-EDDDWIDWYDSDDDRRRRRRRR-NH2
B48: R8-RL-16 (…) (peptide)
peptide: Ac-RRRRRRRREAAAKEDDDWIDWYDSDDD-NH2
B49: R8-FL-16 (…) (peptide)
peptide: Ac-RRRRRRRRGGGGSEDDDWIDWYDSDDD-NH2
B50: 16-RL-R8 (…) (peptide)
peptide: Ac-EDDDWIDWYDSDDDEAAAKRRRRRRRR-NH2
B51: 16-FL-R8 (…) (peptide)
peptide: Ac-EDDDWIDWYDSDDDGGGGSRRRRRRRR-NH2
B52: R8-17 (Ac-…-NH2) (peptide)
peptide: Ac-RRRRRRRREDDDWIDWGPTSDDD-NH2
B53: 17-R8 (…) (peptide)
peptide: Ac-EDDDWIDWGPTSDDDRRRRRRRR-NH2
B54: R8-RL-17 (…) (peptide)
peptide: Ac-RRRRRRRREAAAKEDDDWIDWGPTSDDD-NH2
B55: R8-FL-17 (…) (peptide)
peptide: Ac-RRRRRRRRGGGGSEDDDWIDWGPTSDDD-NH2
B56: 17-RL-R8 (…) (peptide)
peptide: Ac-EDDDWIDWGPTSDDDEAAAKRRRRRRRR-NH2
B57: 17-FL-R8 (…) (peptide)
peptide: Ac-EDDDWIDWGPTSDDDGGGGSRRRRRRRR-NH2
B58: R4-21 (Ac-RRRREDDD(2Nala)…-NH2) (peptide)
peptide: Ac-RRRREDDD[2Nal]IDWGPTSDDD-NH2
SMILES: CC[C@H](C)[C@H](NC(=O)[C@H](Cc1ccc2ccccc2c1)NC(=O)[C@H](CC(=O)O)NC(=O)[C@H](CC(=O)O)NC(=O)[C@H](CC(=O)O)NC(=O)[C@H](CCC(=O)O)NC(=O)[C@H](CCCNC(=N)N)NC(=O)[C@H](CCCNC(=N)N)NC(=O)[C@H](CCCNC(=N)N)NC(=O)[C@H](CCCNC(=N)N)NC(C)=O)C(=O)N[C@@H](CC(=O)O)C(=O)N[C@@H](Cc1c[nH]c2ccccc12)C(=O)NCC(=O)N1CCC[C@H]1C(=O)N[C@H](C(=O)N[C@@H](CO)C(=O)N[C@@H](CC(=O)O)C(=O)N[C@@H](CC(=O)O)C(=O)N[C@@H](CC(=O)O)C(N)=O)[C@@H](C)O

What follows are binders tested against Sushi domains (SD1/2) protein of GABAB1a (GB1a) (assay: FP competition vs TAMRA AJAP-1probe).
Chain of Sushi domains (SD1/2) protein of GABAB1a (GB1a) (Q9Z0U4 29-158): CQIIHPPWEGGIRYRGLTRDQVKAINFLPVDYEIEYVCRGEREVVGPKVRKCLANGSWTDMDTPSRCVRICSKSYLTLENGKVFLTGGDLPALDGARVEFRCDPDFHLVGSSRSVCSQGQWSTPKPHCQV

B1 and B2 are within 1.5-fold of each other in Ki: 87 nM for the first, 62 nM for the second.

B3 and B4 are within 1.5-fold of each other in Ki: 28 nM for the first, 26 nM for the second.

B5 and B6 are within 1.5-fold of each other in Ki: 34 nM for the first, 35 nM for the second.

Compared with B7, B8 is 2-fold lower in Ki: 18 nM for the first, 9 nM for the second. The second binds more tightly here.

B9 and B10 are within 1.5-fold of each other in Ki: 24 nM for the first, 30 nM for the second.

B11 and B12 are within 1.5-fold of each other in Ki: 240 nM for the first, 199 nM for the second.

B13 and B14 are within 1.5-fold of each other in Ki: 40 nM for the first, 38 nM for the second.

B15 and B16 are within 1.5-fold of each other in Ki: 32 nM for the first, 30 nM for the second.

Compared with B17, B18 is 1.9-fold higher in Ki: 32 nM for the first, 60 nM for the second. The first binds more tightly here.

Compared with B19, B20 is 1.5-fold lower in Ki: 41 nM for the first, 27 nM for the second.

B21 and B22 are within 1.5-fold of each other in Ki: 41 nM for the first, 34 nM for the second.

B23 and B24 are the same in Ki: 54 nM for the first, 54 nM for the second.

B25 and B26 are within 1.5-fold of each other in Ki: 40 nM for the first, 48 nM for the second.

What follows are binders tested against Sushi domains (SD1/2) protein of the GABAB1a (GB1a) subunit, recombinant (assay: FP competition).
Chain of Sushi domains (SD1/2) protein of the GABAB1a (GB1a) subunit, recombinant (Q9Z0U4 29-158): as above

B27 and B28 are within 1.5-fold of each other in Ki: 523 nM for the first, 434 nM for the second.

Compared with B29, B30 is 5.9-fold lower in Ki: 1520 nM for the first, 257 nM for the second.

First: B31
Second: B32
The Ki of the first is 1.7-fold lower: 142 nM for the first, 243 nM for the second.

Going from B33 to B34, the Ki rises from 191 nM to 401 nM (2.1-fold).

Compared with B35, B36 is 5-fold lower in Ki: 4800 nM for the first, 951 nM for the second.

Compared with B37, B38 is 8.4-fold lower in Ki: 3600 nM for the first, 429 nM for the second.

B39 and B40 are within 1.5-fold of each other in Ki: 270 nM for the first, 332 nM for the second.

First: B41
Second: B42
The Ki of the first is 1.7-fold higher: 346 nM for the first, 204 nM for the second.

B43 and B44 are within 1.5-fold of each other in Ki: 255 nM for the first, 337 nM for the second.

First: B45
Second: B46
The Ki of the first is 1.6-fold higher: 739 nM for the first, 459 nM for the second.

First: B47
Second: B48
The Ki of the first is 4.8-fold lower: 65 nM for the first, 314 nM for the second.

Going from B49 to B50, the Ki falls from 280 nM to 100 nM (2.8-fold).

First: B51
Second: B52
The Ki of the first is 2-fold higher: 118 nM for the first, 58 nM for the second.

B53 and B54 are within 1.5-fold of each other in Ki: 123 nM for the first, 105 nM for the second.

B55 and B56 are within 1.5-fold of each other in Ki: 140 nM for the first, 139 nM for the second.

Going from B57 to B58, the Ki falls from 147 nM to 13 nM (11-fold).
